The target of data set [1] is T1, PDGF-AB (Homo sapiens, UniProt P04085;P01127 P04085:87-211,P01127:82-190). In words: filter; thrombin aptamer control. Particulars: tags: R&D Systems, E. coli; stem-loop. As to the method: (§1) The binding of ssDNA ligands at low concentrations to varying concentrations of PDGF was determined by the nitrocellulose filter binding method as described (Green et al., (1995) Chemistry and Biology 2:683-695). The concentrations of PDGF stock solutions (in PBS) were determined from the absorbance readings at 280 nm using the following e₂₈₀ values calculated from the amino acid sequences (Gill, S.C. and von Hippel, P. H. (1989) Anal. Biochem. 182:319-326): 19,500 M⁻¹cm⁻¹ for PDGF-AA, 15,700 M⁻¹cm⁻¹ for PDGF-AB and 11,800 M⁻¹cm⁻¹ for PDGF-BB. ssDNA for all binding experiments were purified by electrophoresis on 8% (>80 nucleotides) or 12% (<40 nucleotides) polyacrylamide/7 M urea gels. All ssDNA ligands were heated at 90° C. in binding buffer at high dilution (1 μM) for 2 min and cooled on ice prior to further dilution into the protein solution. The binding mixtures were typically incubated for 15 min at 37° C. before partitioning on nitrocellulose filters.

Data set [2] concerns the target T1, PDGF-AB. Description: filter; +/-38; high affinity component of biphasic binding. Particulars: tags: R&D Systems, E. coli. As to the method: (§2) Briefly, the 2′-fluoro-2′-deoxypyrimidine RNA for affinity selections was prepared by in vitro transcription from synthetic DNA templates using T7 RNA polymerase (Milligan et al., Nucl. Acids Res. 15:8783 (1987)). The conditions for in vitro transcription described in detail previously (Jellinek et al., (1994) supra) were used, except that higher concentration (3 mM) of the 2′-fluoro-2′-deoxypyrimidine nucleoside triphosphates (2′-F-UTP and 2′-F-CTP) was used compared to ATP and GTP (1 mM). Affinity selections were done by incubating PDGF AB with 2′-fluoro-2′-deoxypyrimidine RNA for at least 15 min at 37° C. in PBS containing 0.01% human serum albumin. Partitioning of free RNA from protein-bound RNA was done by nitrocellulose filtration as described (Jellinek et al., (1993, 1994) supra). Reverse transcription of the affinity-selected RNA and amplification by PCR were done as described previously (Jellinek et al., (1994) supra). […] The affinity-enriched pool (round 19) was cloned and sequenced as described (Schneider et al., (1992) supra). The unique-sequence ligands were screened for their ability to bind PDGF AB with high affinity.

The target in data set [3] is T2, TGFβ1 (Homo sapiens, UniProt P01137 P01137:279-390). In words: filter; 2'-OH RNA; printed lib1-6-8 in Table 4. Particulars: tags: Genentech; biotinylated version used in bead assay; chain copies: 2.
The target of data set [4] is T3, PDGF-BB (Homo sapiens, UniProt P01127 P01127:82-190). In words: filter; +/-0.009; high affinity component; PBSM, 37 C. Particulars: tags: R&D Systems, E. coli; chain copies: 2 (inferred); label: 5'-32P; three-way helix junction. Here is the method: (§3) The fraction of ³²P 5′ nd-labeled DNA ligands bound to varying concentrations of PDGF was determined by the nitrocellulose filter binding method. Minimal ligands tested were 20t (o), 36t (Δ), and 41t (□). Oligonucleotide concentrations in these experiments were ≈10 pM (PDGF-AB and PDGF-BB) and ≈50 pM (PDGF AA). Data points were fitted to eq. 1 (for binding of the DNA ligands to PDGF-AA) or to eq. 2 (for binding to PDGF AB and BB) using the non-linear least squares method. Binding reactions were done at 37° C. in binding buffer (PBSM with 0.01% HSA).
as §1, with “All ssDNA ligands were heated at 90° C. in binding buffer at high dilution (1 μM) for 2 min and cooled on ice prior to further dilution into the protein solution. The binding mixtures were typically incubated for 15 min at 37° C. before partitioning on nitrocellulose filters.” left out

Data set [5] deals with T4, PDGF-AA (Homo sapiens, UniProt P04085 P04085:87-211). Description: filter; +/-12; PBSM, 37 C; comparable to random DNA. The settings on record: tags: R&D Systems, E. coli, long form of A-chain; chain copies: 2 (inferred); label: 5'-32P; three-way helix junction. Here is the method: as §3
as §1, with “All ssDNA ligands were heated at 90° C. in binding buffer at high dilution (1 μM) for 2 min and cooled on ice prior to further dilution into the protein solution. The binding mixtures were typically incubated for 15 min at 37° C. before partitioning on nitrocellulose filters.” left out

The target of data set [6] is T1, PDGF-AB. In words: filter; +/-0.011; high affinity component; PBSM, 37 C. The settings on record: tags: R&D Systems, E. coli; label: 5'-32P; three-way helix junction. Here is the method:
as §3, §1
(§4) ^aData points shown in FIG. 5A were fitted to eq 1 (Example 7). ^bData points in FIGS. 5B and 5C were fitted to eq. 2.

The target in data set [7] is T1, PDGF-AB. Description: filter; +/-0.009; high affinity component; PBSM, 37 C. Particulars: tags: R&D Systems, E. coli; label: 5'-32P; three-way helix junction. Here is the method:
as §3
as §1, with “All ssDNA ligands were heated at 90° C. in binding buffer at high dilution (1 μM) for 2 min and cooled on ice prior to further dilution into the protein solution. The binding mixtures were typically incubated for 15 min at 37° C. before partitioning on nitrocellulose filters.” left out

Data set [8] concerns the target T4, PDGF-AA. Description: filter; +/-8; PBSM, 37 C; comparable to random DNA. The settings on record: tags: R&D Systems, E. coli, long form of A-chain; chain copies: 2 (inferred); label: 5'-32P; three-way helix junction. Here is the method:
as §3
as §1, with “All ssDNA ligands were heated at 90° C. in binding buffer at high dilution (1 μM) for 2 min and cooled on ice prior to further dilution into the protein solution. The binding mixtures were typically incubated for 15 min at 37° C. before partitioning on nitrocellulose filters.” left out

In data set [9] the target is T3, PDGF-BB. Description: filter; +/-0.011; high affinity component; PBSM, 37 C. Particulars: tags: R&D Systems, E. coli; chain copies: 2 (inferred); label: 5'-32P; three-way helix junction. As to the method: as §3, §1, §4
The target in data set [10] is T2, TGFβ1. In words: filter; 37 C; cell IC50 49 nM. The settings on record: tags: Genentech; biotinylated version used in bead assay; chain copies: 2.
In data set [11] the target is T2, TGFβ1. Description: cell_activity. The settings on record: tags: Genentech or R&D Systems; chain copies: 2. As to the method:
MLEC-Pail/luc cells were plated at 3.2×10⁴ cells per well in a 96 well Falcon plate, in 100 μl of DME+10% fetal bovine serum overnight. Media was made from autoclaved water. The cells were washed three times ([…]) in serum free DME plus Solution A (1:1). Solution A is 30 mM Hepes pH 7.6, 10 mM glucose, 3.0 mM KCl, 131 mM NaCl, 1.0 mM disodium phosphate. Samples (100 μl) were added in DME containing 20 mM Hepes pH 7.5, and 0.1% BSA (Fluka, radioimmunoassay grade). All samples were in triplicate. After six hours at 37° C. in a 5% CO₂ incubator the media was removed and cells were washed three times (100 μl each) in cold PBS. Lysis buffer (75 μl) (Analytical Luminescence Laboratory) was added and the plates incubated on ice for 20 min. The plates were sealed and frozen at −80° C. until assayed. Samples (25 μl) were assayed for luciferase activity with the Enhanced Luciferase Assay Kit from Analytical Luminescence Laboratory (San Diego, Calif., USA) according to the manufacturer's instructions using the Berthold Microlumat LB96P luminometer.
Ligands tested for inhibition of TGFβ1 activity were tested at a minimum of five concentrations. The ligands were serially diluted in DME, 20 mM Hepes pH 7.5, 0.1% Fluka BSA in polypropylene tubes and an equal volume of media containing 12 pM TGFβ1 was added to each tube, vortexed and transferred to the cells without further incubation.

Data set [12] deals with T2, TGFβ1. In words: filter; 37 C; cell IC50 210 nM. The settings on record: tags: Genentech; biotinylated version used in bead assay; chain copies: 2.
Data set [13] has as its target T2, TGFβ1. In words: filter; 37 C; cell IC50 124 nM. Particulars: tags: Genentech; biotinylated version used in bead assay; chain copies: 2.
The target in data set [14] is T2, TGFβ1. In words: filter; 37 C; cell IC50 17 nM. Particulars: tags: Genentech; biotinylated version used in bead assay; chain copies: 2.
In data set [15] the target is T3, PDGF-BB. In words: filter; +/-0.031; high affinity component; PBSM, 37 C. Particulars: tags: R&D Systems, E. coli; chain copies: 2 (inferred); label: 5'-32P; three-way helix junction. As to the method: as §3, §4
Data set [16] deals with T4, PDGF-AA. Description: filter; +/-4; PBSM, 0.01% HSA, 37 C; comparable to random DNA. The settings on record: tags: R&D Systems, E. coli, long form of A-chain; chain copies: 2 (inferred); label: 5'-32P; three-way helix junction. Here is the method:
as §3
as §1, with “All ssDNA ligands were heated at 90° C. in binding buffer at high dilution (1 μM) for 2 min and cooled on ice prior to further dilution into the protein solution. The binding mixtures were typically incubated for 15 min at 37° C. before partitioning on nitrocellulose filters.” left out

Data set [17] concerns the target T1, PDGF-AB. In words: filter; +/-34; high affinity component of biphasic binding. Particulars: tags: R&D Systems, E. coli. Here is the method: as §2

Data on 11 molecules can be found in US20030180744, “High affinity oligonucleotide ligands to growth factors” (GILEAD SCIENCES, INC., published 2003).

T2 sequence (P01137 279-390, one chain of several): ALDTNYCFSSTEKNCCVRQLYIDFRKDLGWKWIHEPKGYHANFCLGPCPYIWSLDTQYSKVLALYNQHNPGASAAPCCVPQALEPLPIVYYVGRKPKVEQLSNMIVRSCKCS
T1 sequence (P01127 82-190, chain 2 of 2, other chains not shown): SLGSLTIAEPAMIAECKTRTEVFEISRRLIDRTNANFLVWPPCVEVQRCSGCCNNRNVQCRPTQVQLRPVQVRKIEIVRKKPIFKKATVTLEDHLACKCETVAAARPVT
T3 sequence (P01127 82-190, one chain of several): as the sequence (P01127 82-190, chain 2 of 2, other chains not shown) above

For CAGTCCGTGGTAGGGCAGGTTGGGGTGACTTCGTGGAAT (ssDNA, 3'-3' linked T at 3' end) [T39], the Kd (as a rule, the constant that tells how readily two partners part at equilibrium) in the data set with PDGF-AB [1] was determined as 230 nM. This lies in the sub-micromolar range.

B1: PDGF 2'-F clone 23 (ssRNA)
RNA: GGGAGACAAGAAUAACGCUCAAUCGAUCGGUUGUGUGCCGGACAGCUUUGACCAUGAGCUGGGACCGAGGCCUUCGACAGGAGGCUCACAACAGGC
modifications: 2'-F pyrimidines
In the case of B1, binding with PDGF-AB [2] was characterised by a dissociation constant (Kd) of 0.173 nM.

B2: lib2-6-8 (lib1-6-8 in Table 4) (ssRNA)
RNA: GGGGGAGAACGCGGAUCCAUAACCGGCUGCAUGGGAGGGACAUCCUGGGAAAGGACGGGUCGAGAUGACCUGAGCAGUUCCGGCAAGCUUCGCUCUAGAUCUCCCUUUAGUGAGGGUUA
B2: in the data set with TGFβ1 [3], the Kd came to 4.7 nM.
In the case of CACAGGCTACGGCACGTAGAGCATCACCATGATCCTGTGT (ssDNA, 3'-3' linked T at 3' end) [36t], the Kd in the data set with PDGF-BB [4] was 0.093 nM; in the data set with PDGF-AA [5], 72 nM; in the data set with PDGF-AB [6] it was 0.094 nM.
For the molecule TACTCAGGGCACTGCAAGCAATTGTGGTCCCAATGGGCTGAGTAT (ssDNA, 3'-3' linked T at 3' end) [41t], the Kd in the data set with PDGF-AB [7] amounted to 0.138 nM; with PDGF-AA [8], 49 nM; with PDGF-BB [9], 0.129 nM.

B3: lib5-5 (ssRNA)
RNA: GGGGGAGAACGCGGAUCCGAGCAAUCCCAGGCGCAUAGCUUCCGAGUAGACAGGAGGGAGGGGUGGAUGUGGCGUCUCGAGGAAGCUUCGCUCUAGAUCUCCCUUUAGUGAGGGUUA
modifications: 2'-NH2 pyrimidines
Consider B3, for which, in the data set with TGFβ1 [10], the Kd amounted to 2.4 nM. In the data set with TGFβ1 [11], it took 49 nM to reach half-maximal inhibition (IC50).

B4: lib8-9 (ssRNA)
RNA: GGGGGAGAACGCGGAUCCGCAAUCCCAGGCGCAUAGCUUCCGAGUAGACAGGAGGGAGGGGUGGAUGUGGCGUCUACUCGGCGUCGUGAAGCUUCGCUCUAGAUCUCCCUUUAGUGAGGGUUA
modifications: 2'-NH2 pyrimidines
In the data set with TGFβ1 [12], B4 yielded a Kd of 1.7 nM. Moreover, in the data set with TGFβ1 [11], the IC50 (in general, the concentration at which inhibition is half-maximal) is 210 nM.

B5: lib8-9* (ssRNA)
RNA: GGGGGAGAACGCGGAUCCGCAAUCCCAGGCGCAUAGCUUCCGAGUAGACAGGAGGGAGGGGUGGAUGUGGCGUCUACUCGGCGUCGUGAAGCUUCGCUCUAGAUCUCCCUUUAGUGAGGGUUA
modifications: 2'-NH2 U, 2'-F C
For B5, in the data set with TGFβ1 [13], the Kd amounted to 2.8 nM.

B6: lib5-7 (ssRNA)
RNA: GGGGGAGAACGCGGAUCCGAGCAAGCCCUGGCAUAGCUUCCGAGUAGACAGGAGGGAGGGGUGGAUGUGGCGUCUACUCGGUGUCGUGAAGCUUCGCUCUAGAUCUCCCUUUAGUGAGGGUUA
modifications: 2'-NH2 pyrimidines
As for B6, in the data set with TGFβ1 [11], half-maximal inhibition (IC50) required 17 nM. For the same molecule, the Kd with TGFβ1 [14] worked out at 3.4 nM.
Turning to TGGGAGGGCGCGTTCTTCGTGGTTACTTTTAGTCCCGT (ssDNA, 3'-3' linked T at 3' end) [20t], the Kd with PDGF-BB [15] turned out to be 0.127 nM; with PDGF-AA [16], 47 nM; with PDGF-AB [6], 0.147 nM.

B7: PDGF 2'-F clone 16 (ssRNA)
RNA: GGGAGACAAGAAUAACGCUCAACGAACGAGGAGGGAGUGGCAAGGGAUGGUUGGAUAGGCUCUACGCUCAUUCGACAGGAGGCUCACAACAGGC
modifications: 2'-F pyrimidines
As for B7, the Kd with PDGF-AB [17] worked out at 0.116 nM.
